The values that follow come from patent US20040106557A1 (LICENTIA, published 2004).

Bridge positions count the residues as written; N and C are the ends. Ends that are not written are not given here.

B1: phage-displayed peptide C-5 (fUSE5 phage clone) (peptide)
chain: CVSYCDGLQCWMC
notes: not shown: fUSE5 phage protein III and flanking residues
B2: phage-displayed peptide A-1 (fUSE5 phage clone) (peptide)
chain: CVFTSDYAFC
notes: as for B1
B3: phage-displayed peptide A-3 (fUSE5 phage clone) (peptide)
chain: CIFEPDYSYC
notes: as for B1
B4: phage-displayed peptide B-2 (fUSE5 phage clone) (peptide)
chain: CVFAHNYDYLVC
notes: as for B1
B5: phage-displayed peptide B-1 (fUSE5 phage clone) (peptide)
chain: CTFSVDYKYLMC
notes: as for B1
B6: phage-displayed peptide D-1 (fUSE5 phage clone) (peptide)
chain: CLSTCAQSCRISC
notes: as for B1
B7: phage-displayed peptide C-4 (fUSE5 phage clone) (peptide)
chain: CVAYCIEHHCWTC
notes: as for B1
B8: phage-displayed peptide A-2 (fUSE5 phage clone) (peptide)
chain: CVIYDGNHWC
notes: as for B1
B9: phage-displayed peptide C-3 (fUSE5 phage clone) (peptide)
chain: CVAYCEEWECYVC
notes: as for B1
B10: phage-displayed peptide B-3 (fUSE5 phage clone) (peptide)
chain: CRFDKEYRTLVC
notes: as for B1
B11: phage-displayed peptide A-4 (fUSE5 phage clone) (peptide)
chain: CVFDDLYSFC
notes: as for B1
B12: phage-displayed peptide C-1 (fUSE5 phage clone) (peptide)
chain: CVSYCLFEFCYVC
notes: as for B1
B13: phage-displayed peptide C-2 (fUSE5 phage clone) (peptide)
chain: CVEYCWEGSCYVC
notes: as for B1
B14: phage-displayed peptide D-2 (fUSE5 phage clone) (peptide)
chain: CLLYCHDACWWVC
notes: as for B1
B15: phage-displayed peptide Z-10 (fUSE5 phage clone) (peptide)
chain: CVPYLGLWLC
modifications: cysteine pairing not given here; also: displayed on fUSE5 phage protein III with flanking residues
notes: isolated with 200 µM ZnCl2; not shown: fUSE5 phage protein III and flanking residues
B16: phage-displayed peptide Z-6 (fUSE5 phage clone) (peptide)
chain: CVWYTGNTWC
modifications: not fully specified; cysteine pairing not given here; also: displayed on fUSE5 phage protein III with flanking residues
notes: as for B15
B17: phage-displayed peptide Z-4 (fUSE5 phage clone) (peptide)
chain: CVVYCDSMKCWTC
modifications: cysteine pairing not given here; also: displayed on fUSE5 phage protein III
notes: as for B15
B18: phage-displayed peptide Z-5 (fUSE5 phage clone) (peptide)
chain: CVAYCISSLCYYC
modifications: cysteine pairing not given here; also: displayed on fUSE5 phage protein III
notes: as for B15
B19: phage-displayed peptide Z-1 (fUSE5 phage clone) (peptide)
chain: CVTYCYGEVCYYC
notes: isolated with 200 µM ZnCl2 in the panning buffer; not shown: fUSE5 phage protein III and flanking residues
B20: phage-displayed peptide Z-2 (fUSE5 phage clone) (peptide)
chain: CAAYCVAGLCYGC
modifications: cysteine pairing not given here; also: displayed on fUSE5 phage protein III
notes: as for B15
B21: phage-displayed peptide Z-3 (fUSE5 phage clone) (peptide)
chain: CVQYCIGGDCWFC
modifications: cysteine pairing not given here; also: displayed on fUSE5 phage protein III
notes: as for B15
B22: phage-displayed peptide Z-11 (fUSE5 phage clone) (peptide)
chain: CMFDPMYMWMTC
modifications: cysteine pairing not given here; also: displayed on fUSE5 phage protein III with flanking residues
notes: as for B15
B23: phage-displayed peptide Z-7 (fUSE5 phage clone) (peptide)
chain: CVFDALYTFC
modifications: cysteine pairing not given here; also: displayed on fUSE5 phage protein III with flanking residues
notes: as for B15
B24: phage-displayed peptide Z-8 (fUSE5 phage clone) (peptide)
chain: CVIYPGNVWC
modifications: cysteine pairing not given here; also: displayed on fUSE5 phage protein III with flanking residues
notes: as for B15

The first assay has as its target T1, Prostate specific antigen (PSA), purified from human seminal fluid (human, UniProt P07288 25-261). Description: cell-based or functional assay.
Turning to CVAYCIEHHCWTC (also: 99mTc chelated between thiol sulfurs of reduced peptide) [Tc99m-labeled C4], the “decrease in PSA enzyme activity (S-2586, A405), 30-fold molar excess of peptide” value is ~50%.

The target of a further assay is T1, Prostate specific antigen (PSA), …. Description: cell-based or functional assay. This is another data set of the same source.
In the case of CVFTSNAAYC (disulfide 1-10 (inferred)) [A-1-6 (A1 N6Y7Y9)], the PSA-peptide/PSA ratio came out at 1 ratio.
The same measure, in the same setting: the value for CVFAHNANYLVC (disulfide 1-12 (inferred)) [B-2-5 (B-2 A7)] was 1.1 ratio.
On the same count and under the same terms, the value for CVAYCIQHHCWTC (disulfide (positions not given here)) [C-4-3 (C-4 Q7)] was 2.1 ratio; that for CVFAHNYNYLVC (disulfide 1-12 (inferred)) [B-2-2 (B-2 N8)] was 3.1 ratio; that for CVAYCIEHHCWTC (disulfide 1-13, 5-10) [chemically synthesized peptide C-4 without GA flanks (C-4-1, C4 parent)] was 2.1 ratio.
The same measure, in the same setting: the value for CVFTSNYAFC (disulfide 1-10 (inferred)) [A-1-4 (A-1 N6)] was 2.4 ratio; that for CVFAHNYDYLVC (disulfide 1-12) [chemically synthesized peptide B-2 (B-2-1, B-2 parent)] was 3 ratio; that for CVAYAIQHHC (disulfide 1-10 (inferred)) [C-4-4 (C-4 10A5Q7)] was 1.1 ratio.
CVFTSNYAYC (disulfide 1-10 (inferred)) [A-1-2 (A-1 N6Y9)]: the PSA-peptide/PSA ratio came to 2.3 ratio.
Still for that read-out and setting: under CVAFCIEHHCWTC (disulfide (positions not given here)) [C-4-2 (C-4 F4)] stands 2.3 ratio.
Still for that read-out and setting: under CVFAHNYNYC (disulfide 1-10 (inferred)) [B-2-4 (B-2 10 N8)] stands 1.9 ratio; under CVYTSDYAYC (disulfide 1-10 (inferred)) [A-1-5 (A-1 Y39)], 1 ratio.
As to CVFTSNYNYC (disulfide 1-10 (inferred)) [A-1-3 (A-1 N6N8Y9)], the PSA-peptide/PSA ratio is 1.9 ratio.
On the same count and under the same terms, under cyclo(HHCWTVAYCIE) (disulfide 3-9 (inferred)) [C-4-7 (cyclic with peptide bond)] stands 0.8 ratio; under CVAYCIEHHCATC (disulfide (positions not given here); not fully specified) [C-4-6 (C-4 A11)], 0.9 ratio; under CVFAHNYNALVC (disulfide 1-12 (inferred)) [B-2-3 (B-2 N8A9)], 2.6 ratio.
Turning to CVFTSDYAFC (disulfide 1-10) [chemically synthesized peptide A-1 (A-1-1, A-1 parent)], the PSA-peptide/PSA ratio was 2.3 ratio.
Same read-out and setting: under CVAACIEHHCWTC (disulfide (positions not given here)) [C-4-5 (C-4 A4)] stands 1 ratio.

A further assay shares this target. Description: phage display, three rounds of selection on PSA captured by MAb 5E4. As to the method: (§1) The screening of phage display peptide libraries was performed essentially as described by Koivunen et al. (21). Briefly, each phage library was separately screened with PSA captured on microtiter wells coated with the monoclonal antibody 5E4, which binds both free and complexed PSA (24). 33 nM PSA in TBS buffer containing 10 g/L BSA (BSA-TBS) was incubated in wells coated with MAb 5E4 for 1 h, then the wells were washed to remove unbound PSA. An aliquot of each phage library ([…] infectious particles) was added to the wells, and incubated for 3 h at 22° C. during the first round of panning and for 1 h during subsequent rounds. The phage solution was removed and the wells were washed with TBS containing 0.5% Tween 20. The panning was also performed in the prescence of 200 μM ZnCl2. The bound phage were eluted with 0.1 M glycine buffer, pH 2.2 and neutralized with 1 M Tris base. The eluted phage were amplified by infection of E. coli K91 kan cells, and purified by precipitation with polyethylene glycol. After three rounds of selection and amplification single stranded DNA from individual phage clones was prepared and the peptide sequences were determined by sequencing the relevant part of the viral DNA. Sequencing was performed with an ABI 310 Genetic analyzer and Dye Terminator Cycle Sequencing Core Kit (PE Applied Biosystems, Foster City, Calif., USA) using the oligonucleotide 5′ […] 3′ as a primer.
For the molecule B1, the binding result is given as “binds”.
Regarding B2, the binding result was “binds”.
Turning to B3, the binding result is recorded as “binds”.
Still for that read-out and setting: the value for B4 was “binds”; that for B5 was “binds”.
Still for that read-out and setting: under B6 stands “binds”.
Same read-out and setting: the value for B7 was “binds”.
B8: the binding result is given as “binds”.
Same read-out and setting: under B9 stands “binds”; under B10, “binds”.
The same measure, in the same setting: under B11 stands “binds”; under B12, “binds”; under B13, “binds”.
On the same count and under the same terms, the value for B14 was “binds”.

Another assay has the same target. Put plainly: phage display selection on PSA captured by MAb 5E4, 200 µM ZnCl2 in the panning buffer. As to the method: as §1
For B15, the binding result is listed as “binds”.
On to B16, for which the binding result is recorded as “binds”.
With B17, the binding result is reported as “binds”.
For the molecule B18, the binding result is listed as “binds”.
The same measure, in the same setting: under B19 stands “binds”; under B20, “binds”; under B21, “binds”.
With B22, the binding result is listed as “binds”.
B23: the binding result is “binds”.
For the molecule B24, the binding result was “binds”.
